Numbered stars: 1 amine (or outer) side, 2 acyl side, 3 side chain; on linkers, the order of the positions; unused ones are H or OH. Bridge positions count the residues as written; N and C are the ends. Square brackets hold non-standard residues; d marks the D form. Side chains are listed from the residue outwards. Ends that are not written are not given here. * marks the point of attachment. C20 diacid = O=C(O)CCCCCCCCCCCCCCCCCCC(=O)*; γGlu = O=C(O)[C@H](CCC(=O)[*:2])N[*:1]

The target of one assay is T1, rat calcitonin receptor (rat, UniProt P32214 25-516).
T1 construct: whole, on cells; Used as membranes prepared from transiently transfected BHK tk'ts 13 cells (Assay VIII); also called rCTR; rat calcitonin (a) receptor
T1 sequence (looked up): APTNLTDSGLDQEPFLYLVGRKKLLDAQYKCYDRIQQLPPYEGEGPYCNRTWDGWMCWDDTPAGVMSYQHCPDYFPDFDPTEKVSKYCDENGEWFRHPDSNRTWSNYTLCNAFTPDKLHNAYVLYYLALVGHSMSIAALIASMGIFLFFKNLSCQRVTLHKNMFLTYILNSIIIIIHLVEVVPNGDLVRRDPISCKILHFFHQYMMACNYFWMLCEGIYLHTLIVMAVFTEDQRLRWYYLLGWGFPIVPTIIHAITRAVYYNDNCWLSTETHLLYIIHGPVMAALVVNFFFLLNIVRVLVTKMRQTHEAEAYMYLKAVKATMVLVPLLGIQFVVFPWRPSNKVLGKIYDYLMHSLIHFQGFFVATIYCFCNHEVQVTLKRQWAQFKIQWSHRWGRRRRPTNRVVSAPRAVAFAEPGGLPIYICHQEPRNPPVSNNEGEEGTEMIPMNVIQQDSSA
The assay can be described thus: SPA competition binding, displacement of 125I-calcitonin from membranes of BHK tk'ts 13 cells with rat calcitonin receptor (Assay VIII).

In assay [1] the target is T2, human amylin 3(a) receptor (human calcitonin receptor co-expressed with RAMP-3) (human, UniProt P30988 25-474; O60896 24-148, limits assumed).
T2 sequence (looked up) 1: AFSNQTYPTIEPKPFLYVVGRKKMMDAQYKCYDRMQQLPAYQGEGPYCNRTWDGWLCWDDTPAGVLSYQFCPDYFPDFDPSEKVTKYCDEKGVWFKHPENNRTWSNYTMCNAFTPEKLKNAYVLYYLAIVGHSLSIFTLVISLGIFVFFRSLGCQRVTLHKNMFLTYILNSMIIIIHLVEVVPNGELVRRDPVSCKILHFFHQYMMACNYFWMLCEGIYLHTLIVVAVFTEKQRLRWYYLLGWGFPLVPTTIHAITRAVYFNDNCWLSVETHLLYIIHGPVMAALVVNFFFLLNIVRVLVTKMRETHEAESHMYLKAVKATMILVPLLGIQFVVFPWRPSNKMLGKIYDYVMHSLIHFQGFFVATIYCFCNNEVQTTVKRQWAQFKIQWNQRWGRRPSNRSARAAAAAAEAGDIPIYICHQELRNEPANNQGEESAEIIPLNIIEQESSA
T2 sequence (looked up) 2: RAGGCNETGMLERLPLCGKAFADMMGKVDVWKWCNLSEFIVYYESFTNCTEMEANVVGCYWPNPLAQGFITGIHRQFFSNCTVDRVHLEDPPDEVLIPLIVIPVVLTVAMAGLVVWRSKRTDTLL
The assay can be described thus: cell-based or functional assay.

Assay [2] addresses T3, human calcitonin receptor (human, UniProt P30988 25-474).
T3 sequence (looked up): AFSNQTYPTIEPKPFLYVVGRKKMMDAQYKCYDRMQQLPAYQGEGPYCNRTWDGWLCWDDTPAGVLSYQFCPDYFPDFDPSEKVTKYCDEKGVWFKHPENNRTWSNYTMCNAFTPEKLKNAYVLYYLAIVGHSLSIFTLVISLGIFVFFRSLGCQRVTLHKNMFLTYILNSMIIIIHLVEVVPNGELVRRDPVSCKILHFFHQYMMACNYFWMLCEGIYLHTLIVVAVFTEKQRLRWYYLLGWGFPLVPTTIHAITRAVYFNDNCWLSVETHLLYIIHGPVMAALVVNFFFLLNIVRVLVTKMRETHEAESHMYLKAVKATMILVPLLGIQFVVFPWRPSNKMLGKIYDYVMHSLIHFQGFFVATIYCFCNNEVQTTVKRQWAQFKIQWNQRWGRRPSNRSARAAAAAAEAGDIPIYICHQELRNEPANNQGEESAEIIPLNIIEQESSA
The assay can be described thus: cell-based or functional assay.

Assay [3] deals with T2, human amylin 3(a) receptor (human …). The assay can be described thus: SPA competition binding (Assay V): displacement of 125I-rat amylin from membranes of BHK cells with human calcitonin receptor + RAMP-3. The procedure:
The binding assay was performed using scintillation proximity assay (SPA) beads (RPNQ0001) from PerkinElmer and cell membranes from the Amylin 3(a)/CRE-luc cells (as described in Assay (II)) were used. Membranes were prepared in the following way; the cells were rinsed with PBS and incubated with Versene for approximately 5 min before harvesting. The cells were flushed with PBS and the cell-suspension was centrifuged for 5 min at 1000 rpm. Cells were homogenized (ultrathurrax) in a buffer containing 20 mM Na-HEPES and 10 mM EDTA (pH 7.4) and centrifuged at 20.000 rpm for 15 min. The resulting pellet was resuspended, homogenized and centrifuged (20.000 rpm, 15 min) in a buffer containing 20 mM Na-HEPES and 0.1 mM EDTA (pH 7.4, buffer 2). The resulting pellet was resuspended in buffer 2 and protein concentration was measured (BCA protein Assay, Pierce). The homogenate was kept cold during the whole procedure. The membranes were kept at −80° C. until use. The assay was performed in a 384 well Optiplate (PerkinElmer) in a total volume of 40 ul. Membranes were mixed with SPA beads. Final concentration of membranes 35 ng/μL final and SPA beads was 0.05 mg/well. Test-compounds were dissolved in DMSO and further diluted in assay buffer (50 mM Hepes, pH 7.4, 1 mM CaCl2, 5 mM MgCl₂, 0.1% OA and 0.02% Tween20). […] The final mixture was incubated with shaking at 400 rpm for 120 min at 25° C. prior to centrifugation (1500 rpm, 10 min). Samples were analyzed on TopCounter™ (Packard). The IC₅₀ was calculated using (one site binding competition analysis) GraphPad Prism5 as a measure of receptor affinity.

Regarding KCNTATCATQRLADFLRHSSPNFGAIPSSTNVGSRTY-NH2 (disulfide 2-7 (inferred)) [[Asp14,Arg17,Pro21,Pro27,Arg35]-h-amylin], the IC50 with rat calcitonin receptor is 30.9 nM.

B1: N^ε1-[(4S)-4-carboxy-4-(19-carboxynonadecanoylamino)butanoyl]-[Asp14,Arg17,Pro21,Pro27,Pro34,Arg35]-h-amylin (peptide)
peptide: K([γGlu-C20 diacid])CNTATCATQRLADFLRHSSPNFGAIPSSTNVGPRTY-NH2
modifications: disulfide 2-7; N-terminus assumed
SMILES: CC[C@H](C)[C@H](NC(=O)[C@H](C)NC(=O)CNC(=O)[C@H](Cc1ccccc1)NC(=O)[C@H](CC(N)=O)NC(=O)[C@@H]1CCCN1C(=O)[C@H](CO)NC(=O)[C@H](CO)NC(=O)[C@H](Cc1c[nH]cn1)NC(=O)[C@H](CCCNC(=N)N)NC(=O)[C@H](CC(C)C)NC(=O)[C@H](Cc1ccccc1)NC(=O)[C@H](CC(=O)O)NC(=O)[C@H](C)NC(=O)[C@H](CC(C)C)NC(=O)[C@H](CCCNC(=N)N)NC(=O)[C@H](CCC(N)=O)NC(=O)[C@@H](NC(=O)[C@H](C)NC(=O)[C@@H]1CSSC[C@H](NC(=O)[C@@H](N)CCCCNC(=O)CC[C@H](NC(=O)CCCCCCCCCCCCCCCCCCC(=O)O)C(=O)O)C(=O)N[C@@H](CC(N)=O)C(=O)N[C@@H]([C@@H](C)O)C(=O)N[C@@H](C)C(=O)N[C@@H]([C@@H](C)O)C(=O)N1)[C@@H](C)O)C(=O)N1CCC[C@H]1C(=O)N[C@@H](CO)C(=O)N[C@@H](CO)C(=O)N[C@H](C(=O)N[C@@H](CC(N)=O)C(=O)N[C@H](C(=O)NCC(=O)N1CCC[C@H]1C(=O)N[C@@H](CCCNC(=N)N)C(=O)N[C@H](C(=O)N[C@@H](Cc1ccc(O)cc1)C(N)=O)[C@@H](C)O)C(C)C)[C@@H](C)O
For B1, in assay [1], the “Ratio hCT/hAmylin funct. (hCTR EC50 over hAmylin-R EC50)” value turned out to be 24.9 and the “hAmylin-R funct. EC50 (CRE luciferase reporter, BHK cells)” value (shortened to “hAmylin-R funct. EC50”) came to 0.146 nM. For the same molecule, the “hCTR funct. EC50 (CRE luciferase reporter, BHK cells)” value (“hCTR funct. EC50” for short) in assay [2] is 3.64 nM. Moreover, the 50% inhibitory concentration (IC50) in assay [3] was found to be 0.281 nM.

B2: N^ε1-[(4S)-4-carboxy-4-[[(4S)-4-carboxy-4-(19-carboxynonadecanoylamino)butanoyl]amino]butanoyl]-[D-Asp14,Arg17,Pro21,Pro27,Arg35]-h-amylin (peptide)
peptide: K([γGlu-γGlu-C20 diacid])CNTATCATQRLA[dD]FLRHSSPNFGAIPSSTNVGSRTY-NH2
modifications: disulfide 2-7; N-terminus assumed
SMILES: CC[C@H](C)[C@H](NC(=O)[C@H](C)NC(=O)CNC(=O)[C@H](Cc1ccccc1)NC(=O)[C@H](CC(N)=O)NC(=O)[C@@H]1CCCN1C(=O)[C@H](CO)NC(=O)[C@H](CO)NC(=O)[C@H](Cc1c[nH]cn1)NC(=O)[C@H](CCCNC(=N)N)NC(=O)[C@H](CC(C)C)NC(=O)[C@H](Cc1ccccc1)NC(=O)[C@@H](CC(=O)O)NC(=O)[C@H](C)NC(=O)[C@H](CC(C)C)NC(=O)[C@H](CCCNC(=N)N)NC(=O)[C@H](CCC(N)=O)NC(=O)[C@@H](NC(=O)[C@H](C)NC(=O)[C@@H]1CSSC[C@H](NC(=O)[C@@H](N)CCCCNC(=O)CC[C@H](NC(=O)CC[C@H](NC(=O)CCCCCCCCCCCCCCCCCCC(=O)O)C(=O)O)C(=O)O)C(=O)N[C@@H](CC(N)=O)C(=O)N[C@@H]([C@@H](C)O)C(=O)N[C@@H](C)C(=O)N[C@@H]([C@@H](C)O)C(=O)N1)[C@@H](C)O)C(=O)N1CCC[C@H]1C(=O)N[C@@H](CO)C(=O)N[C@@H](CO)C(=O)N[C@H](C(=O)N[C@@H](CC(N)=O)C(=O)N[C@H](C(=O)NCC(=O)N[C@@H](CO)C(=O)N[C@@H](CCCNC(=N)N)C(=O)N[C@H](C(=O)N[C@@H](Cc1ccc(O)cc1)C(N)=O)[C@@H](C)O)C(C)C)[C@@H](C)O
B2: the “hAmylin-R funct. EC50” value in assay [1] stood at 0.383 nM. In assay [2], the “hCTR funct. EC50” value was determined as 100 nM. Moreover, in assay [3], the IC50 turned out to be 0.365 nM.
For K([γGlu-γGlu-C20 diacid])CNTATCATQRLADFLRHSSPNFGAIPSSTNVGPRTY-NH2 (disulfide 2-7, also called compound 130), in assay [1], the “Ratio hCT/hAmylin funct. (hCTR EC50 over hAmylin-R EC50)” value was 44.9 and the “hAmylin-R funct. EC50” value came to 0.162 nM. Besides, the “hCTR funct. EC50” value in assay [2] amounted to 7.28 nM. Moreover, in assay [3], the 50% inhibitory concentration (IC50) is 0.453 nM.

Source of the values: US20140087995A1 (published 2014).
